Publication PMC8548916

Target: Cnm1 (contact nucleus mitochondria 1) tagged with GFP on its C terminus (S. cerevisiae)
Assay: co-IP; GFP-Trap beads precipitate Cnm1-GFP from cleared yeast lysate (1% digitonin, 150 mM NaCl, 50 mM Tris-HCl pH 8.0, 5% glycerol, 1 mM MgCl2), 1 h at 4°C; Western blot with antibodies against GFP and mCherry; enrichment by densitometry

Tom70 tagged with mCherry on its C terminus (from UniProt P07213 1-617) (natural protein)
fold enrichment in the immunoprecipitate relative to Tom20: 2 fold
